By Kd is commonly meant the free concentration of one partner at which half of the binding sites on the other are occupied at equilibrium, for simple one-to-one binding. What is called koff is the first-order rate constant of dissociation. Read a low koff as slow dissociation. In general, kon refers to the rate constant with which the complex forms. For orientation: t½ means the time needed for the level to fall by half in the phase considered. Read a high t½ as slow decline.

The results in this text go back to patent US20060148705A1 (Regeneron, published 2006).

For test [1], the target named is T1, human VEGF165 (human, UniProt P15692-4 27-191).
T1 construct: also called hVEGF165
Nature of the test: BIAcore 2000; fusion protein captured on anti-VEGFR1 mAb, human VEGF165 (0-2 nM) injected. Here is the method: (§1) Binding assays were carried out by first capturing around 100 RU of each fusion protein construct to the immobilized anti-VEGFR1 mAb, after which various concentrations (0-2 nM) of human VEGF165 were injected over the captured fusion protein surface at a flow rate of 100 μl/min for 2 minutes. The fusion protein constructs binding kinetic parameters including ka (1/Ms) (association rate constant), kd (1/s) (dissociation rate constant) and KD (dissociation equilibrium constant) were determined using the BIA evaluation 4.1 computer program (Biacore, Inc.), and t½ was determined using formula 0.693/kd (dissociation rate).
Background: Surface plasmon resonance follows binding to a sensor surface in real time, without labels.

Test [2] deals with T1, human VEGF165. Kind of test: BIAcore 2000; t½ = 0.693/kd. On the procedure:
as §1

Test [3] concerns the target T1, human VEGF165. Nature of the test: half-life of dissociation from hVEGF165, as described in WO/0075319.
Test [4] has as its target T1, human VEGF165. Nature of the test: kinetic dissociation rate from hVEGF165, as described in WO/0075319.

T1 sequence (P15692 other isoform, or with tags, fused parts or gaps limits assumed): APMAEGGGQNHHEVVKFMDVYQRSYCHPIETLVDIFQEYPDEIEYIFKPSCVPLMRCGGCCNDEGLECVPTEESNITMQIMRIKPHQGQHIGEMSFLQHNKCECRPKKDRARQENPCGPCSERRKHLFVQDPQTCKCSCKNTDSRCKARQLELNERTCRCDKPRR

B1: fusion protein R1R2R1R2 (SEQ ID NO:24), single chain VEGF mini-trap (receptor)
chain: SDTGRPFVEMYSEIPEIIHMTEGRELVIPCRVTSPNITVTLKKFPLDTLIPDGKRIIWDSRKGFIISNATYKEIGLLTCEATVNGHLYKTNYLTHRQTNTIIDVVLSPSHGIELSVGEKLVLNCTARTELNVGIDFNWEYPSSKHQHKKLVNRDLKTQSGSEMKKFLSTLTIDGVTRSDQGLYTCAASSGLMTKKNSTFVRVHEKGPGRPFVEMYSEIPEIIHMTEGRELVIPCRVTSPNITVTLKKFPLDTLIPDGKRIIWDSRKGFIISNATYKEIGLLTCEATVNGHLYKTNYLTHRQTNTIIDVVLSPSHGIELSVGEKLVLNCTARTELNVGIDFNWEYPSSKHQHKKLVNRDLKTQSGSEMKKFLSTLTIDGVTRSDQGLYTCAASSGLMTKKNSTFVRVHEK
notes: Monomer, secreted from CHO K1 cells; also called R1R2-R1R2 VEGF mini-trap; (R1R2)2
In the test with human VEGF165 [1], B1 yielded a Kd of 1.76 pM, a koff of 8e-06 s⁻¹ and a kon of 4.54e+06 M⁻¹ s⁻¹. Also, in the test with human VEGF165 [2], the “t½” value came to 24.1 h.

B2: recombinant monomeric R1R2-myc myc his (receptor, not shown: small tags and cut ends)
chain: GRPFVEMYSEIPEIIHMTEGRELVIPCRVTSPNITVTLKKFPLDTLIPDGKRIIWDSRKGFIISNATYKEIGLLTCEATVNGHLYKTNYLTHRQTNTIIDVVLSPSHGIELSVGEKLVLNCTARTELNVGIDFNWEYPSSKHQHKKLVNRDLKTQSGSEMKKFLSTLTIDGVTRSDQGLYTCAASSGLMTKKNSTFVRVHEK
modifications: Monomer with a C-terminal myc-myc-His tag that is not given in letters and is left out.
notes: Monomer; also called R1R2-myc myc his monomer
Regarding B2, the “T1/2” value with human VEGF165 [3] came out at 1.68 min. In the test with human VEGF165 [4], this molecule displayed a koff of 0.00674 s⁻¹.
